Assay results published in US20180022816A1 (Genmab, published 2018).

B1: HuMab 111 (antibody, V domains shown)
VH: QVQLVQSGAEVKKPGSSVKVSCKASGGTFSSYGISWVRQAPGPGLEWMGRIIPILGIANYAQKFQGRVTITADKSTNTAYMELSSLRSEDTAVYYCARDQEYSSNWYYWGQGTLVTVSS
VL: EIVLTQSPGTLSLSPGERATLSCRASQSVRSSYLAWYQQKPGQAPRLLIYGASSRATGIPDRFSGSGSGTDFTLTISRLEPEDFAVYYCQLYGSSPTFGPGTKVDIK
B2: HuMab 059 (antibody, V domains shown)
VH: QVQLVQSGAEVKKPGASVRVPCKASGYTFTRYGISWVRQAPGQGLEWMGWISAYNGKTYYAQKLQGRVTMTTDTSTSTAYMELRSLRSDDTAVYYCARSPLLWFEELYFDYWGQGTLVTVSS
VL: EIVLTQSPGTLSLSPGERATLSCRASQSVSSTYLAWYQQKPGQAPRLLIYGASSRATGIPDRFSGSGSGTDFTLTISRLEPEDFAVYYCQQYGTSLFTFGPGTKVDIK
B3: HuMab 005 (antibody, human IgG1, V domains shown)
VH: EVQLVQSGAEVKKPGESLKISCKASGYSFHFYWIGWVRQMPGKGLEWMGSIYPGDSDTRYRPSFQGQVTISADKSISTAYLQWTSLKASDTAIYYCARQRGDYYYFYGMDVWGQGTTVTVSS
VL: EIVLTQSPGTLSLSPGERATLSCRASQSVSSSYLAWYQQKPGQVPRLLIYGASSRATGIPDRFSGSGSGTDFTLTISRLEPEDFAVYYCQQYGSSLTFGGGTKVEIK
B4: HuMab 106 (antibody, V domains shown)
VH: EVQLVQSGAEVKKPGESLKISCKGSGYSFTRYWIGWVRQMPGKGLEWMGIIYPGDSDTRYSPSFQGQVTISADKSISTAYLQWSSLKASDTAMYYCARLTGDRGFDYYSGMDVWGQGTTVTVSS
VL: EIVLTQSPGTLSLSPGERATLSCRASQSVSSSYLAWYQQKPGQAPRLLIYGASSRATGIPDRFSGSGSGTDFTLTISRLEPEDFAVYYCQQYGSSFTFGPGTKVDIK
B5: HuMab 060 (antibody, V domains shown)
VH: EVQLVQSGAEVKKPGESLKISCKGSGYRFTSYWIGWVRQMPGKGLEWMGSIYPGDSYTRNSPSFQGQVTISADKSIATAYLQWNSLKASDTAMYYCARHAGDFYYFDGLDVWGQGTTVTVSS
VL: not shown

Tests used:
Assay in all cases: cell-based or functional assay
[1] = target: T1, human epidermal growth factor receptor 2 (HER2), membrane-bound on tumor cells (AU565, A431, SK-BR-3) (human, UniProt P04626 23-1255)
[2] = target: T1, human epidermal growth factor receptor …; remark: listed apart in the source
[3] = target: T1, human epidermal growth factor receptor …; remark: listed apart in the source

Row | Binder | EC50, fab-CypHer5E internalization assay, AU565 cells [1] [ng/mL] | Maximal MFI, fab-CypHer5E internalization assay, AU565 cells [1] [MFI] | % cells killed, AU565 cells, anti-kappa-ETA′-conjugated antibody [2] [%] | EC50 of killing, AU565 cells, anti-kappa-ETA′-conjugated antibody [2] [ng/mL] | EC50 of killing, A431 cells, anti-kappa-ETA′-conjugated antibody [3] [ng/mL]
1 | B1 | 35.2 | 81700 | 72 | 24.2 | –
2 | B2 | 14.8 | 77100 | 67 | 67.7 | –
3 | B3 | 21.4 | 95100 | 69.7 | 15.1 | ~10.1
4 | B4 | 68.6 | 57400 | 59.1 | 108 | –
5 | B5 | 36.2 | 68200 | 64.3 | 79.4 | ~10
